Data taken from US20110300138A1 (published 2011).
Blank lines part the entries; values can stand above or below the molecule they belong to.

Columns and labels:
[1] = target: TSHR (full length) coated on tubes (human) (UniProt P16473); assay: inhibition of 125I-K1-18 Fab (competitor) binding to TSHR coated tubes; test sample 10 µg/mL in HBD serum
[2] = target: TSH receptor (TSHR), full length human, coated on tubes (human) (UniProt P16473); assay: inhibition of 125I-K1-18 IgG binding to TSHR coated tubes; competitor 125I-K1-18 IgG; sample at 100 µg/mL in HBD serum
[3] = target: TSHR (thyroid stimulating hormone receptor), full length human (human) (UniProt P16473); assay: competitor ^125I-K1-70 IgG, TSHR coated tubes; 0.1 µg/mL in assay buffer
[4] = target: TSHR (thyroid stimulating hormone receptor), full length human (human) (UniProt P16473); assay: competitor ^125I-K1-70 IgG, TSHR coated tubes; 0.01 µg/mL in assay buffer
[5] = target: TSH receptor (TSHR), full length human, coated on tubes (human) (UniProt P16473); assay: inhibition of 125I-K1-18 IgG binding to TSHR coated tubes; competitor 125I-K1-18 IgG; sample at 10 µg/mL in HBD serum
[6] = target: TSH receptor (full length human TSHR) (human) (UniProt P16473); assay: competition ELISA: inhibition of M22 Fab-peroxidase (competitor) binding to TSHR coated wells; test sample at 0.01 µg/mL diluted in assay buffer
[7] = target: human TSH receptor (full length) coated on ELISA plate wells (human) (UniProt P16473); assay: TSH-biotin binding inhibition ELISA, TSHR coated wells; 0.03 µg/mL in assay buffer + 100 µg/mL 5B3 IgG
[8] = target: TSH receptor (full length human TSHR) coated on tubes (human) (UniProt P16473); assay: 125I-TSH binding inhibition read against NIBSC 90/672; mean over 10, 30 and 100 ng/mL, in serum
[9] = target: TSH receptor (TSHR) coated on tubes (human) (UniProt P16473); assay: inhibition of 125I-K1-70 IgG binding to TSHR coated tubes; negative control 0.1 µg/mL in assay buffer
[10] = target: TSH receptor (TSHR), full length human, coated on tubes (human) (UniProt P16473); assay: inhibition of 125I-K1-18 IgG binding to TSHR coated tubes; competitor 125I-K1-18 IgG; negative control sample at 0.01 µg/mL in HBD serum
[11] = target: TSHR (thyroid stimulating hormone receptor), full length human (human) (UniProt P16473); assay: negative control; competitor ^125I-K1-70 IgG, TSHR coated tubes; 1 µg/mL in HBD
[12] = target: human TSH receptor (full length) coated on ELISA plate wells (human) (UniProt P16473); assay: TSH-biotin binding inhibition ELISA, TSHR coated wells; 0.1 µg/mL in HBD serum pool; negative control MAb
[13] = target: TSH receptor (TSHR) coated on tubes (human) (UniProt P16473); assay: inhibition of 125I-K1-70 IgG binding to TSHR coated tubes; negative control 0.01 µg/mL in assay buffer
[14] = target: TSH receptor (TSHR) coated on tubes (human) (UniProt P16473); assay: inhibition of 125I-K1-70 IgG binding to TSHR coated tubes; negative control 1 µg/mL in assay buffer
[15] = target: TSH receptor (TSHR) coated on tubes (human) (UniProt P16473); assay: inhibition of 125I-K1-70 IgG binding to TSHR coated tubes; negative control 10 µg/mL in HBD serum pool
[16] = target: human thyroid stimulating hormone receptor (TSHR), full length (human) (UniProt P16473); assay: 125I-K1-70 Fab (competitor) binding to TSHR coated tubes; negative control MAb 10 µg/mL in assay buffer
[17] = target: human thyroid stimulating hormone receptor (TSHR), full length (human) (UniProt P16473); assay: 125I-K1-70 Fab (competitor) binding to TSHR coated tubes; negative control MAb 1 µg/mL in assay buffer
[18] = target: thyroid stimulating hormone receptor (TSHR), full length, coated on tubes (human) (UniProt P16473); assay: inhibition of 125I-TSH binding, TSHR coated tubes; antibody 1 µg/mL in HBD serum pool
[19] = target: human TSH receptor (full length) coated on ELISA plate wells (human) (UniProt P16473); assay: TSH-biotin binding inhibition ELISA, TSHR coated wells; 0.01 µg/mL in assay buffer
[20] = target: TSH receptor (TSHR), full length human, coated on tubes (human) (UniProt P16473); assay: inhibition of 125I-K1-18 IgG (competitor) binding to TSHR coated tubes; test sample at 1 µg/mL in HBD serum pool; mean of duplicate
[21] = target: thyroid stimulating hormone receptor (TSHR), full length, coated on tubes (human) (UniProt P16473); assay: inhibition of 125I-TSH binding, TSHR coated tubes; antibody 0.1 µg/mL in HBD serum pool
[22] = target: TSH receptor (TSHR) coated on tubes (human) (UniProt P16473); assay: inhibition of 125I-K1-70 IgG binding to TSHR coated tubes; sample 0.01 µg/mL in HBD serum pool
[23] = target: thyroid stimulating hormone receptor (TSHR), full length, coated on tubes (human) (UniProt P16473); assay: inhibition of 125I-TSH binding, TSHR coated tubes; antibody 0.01 µg/mL in HBD serum pool
[24] = target: human TSH receptor (full length) coated on ELISA plate wells (human) (UniProt P16473); assay: TSH-biotin binding inhibition ELISA, TSHR coated wells; 0.1 µg/mL in assay buffer + 100 µg/mL 5B3 IgG
[25] = target: human TSH receptor (full length) coated on ELISA plate wells (human) (UniProt P16473); assay: TSH-biotin binding inhibition ELISA, TSHR coated wells; 1 µg/mL in assay buffer + 100 µg/mL 5B3 IgG
[26] = target: TSH receptor (TSHR), full length human, coated on tubes (human) (UniProt P16473); assay: inhibition of 125I-K1-18 IgG (competitor) binding to TSHR coated tubes; test sample at 0.1 µg/mL in assay buffer
[27] = target: human thyroid stimulating hormone receptor (TSHR), full length (human) (UniProt P16473); assay: 125I-K1-18 Fab competition, TSHR coated tubes; 0.1 µg/mL in assay buffer

Molecule: 5B3 IgG (antibody)
Inhibition of binding (%) [9]: 1% | Inhibition of binding (%) [10]: -8.1% | Inhibition of binding (%) [11]: -1.5% | % inhibition of TSH-biotin binding [12]: 8.6% | Inhibition of binding (%) [13]: 3.2% | Inhibition of binding (%) [14]: -2.6% | Inhibition of binding (%) [15]: -0.7% | Inhibition of binding (%) [16]: -2.1% | Inhibition of binding (%) [17]: -1.7%

B1: 5C9 IgG (antibody, from another filing, V domains shown)
VH: EVQLVESGGGLIQPGGSLRLSCAASGFTVSSNYMSWVRQAPGKGLEWVSVTYSGGSTSYADSVKGRFTISRDNSKNTLYLQMNSLRAEDTAVYYCARGGRYCSSISCYARSGCDYWGQGTLVTVSS
VL: AIQMTQSPSSLSASVGDRVTITCRASQSISNYLNWYQQKPGKAPKLLIYAASSLQSGVPSRFSGSGSGTDFTLTISSLQPEDFATYYCQQSYSSPSTTFGQGTKLEIK
Inhibition of binding (%) [18]: 19.7% | % inhibition of TSH-biotin binding [19]: 16.1% | Inhibition of binding (%) [20]: 26.8% | Inhibition of binding (%) [21]: 16.2% | Inhibition of binding (%) [22]: 2.8% | Inhibition of binding (%) [23]: 4.1% | % inhibition of TSH-biotin binding [24]: 36.3% | % inhibition of TSH-biotin binding [25]: 46.7% | Inhibition of binding (%) [26]: 33.4% | Inhibition of binding (%) [27]: 27.7%

Second part, the molecule after the results:

Inhibition of binding (%) [1]: 73.9% | Inhibition of binding (%) [2]: 68.7% | Inhibition of binding (%) [3]: 24.8% | Inhibition of binding (%) [4]: 9.4% | Inhibition of binding (%) [5]: 68.1% | Inhibition of binding (%) [6]: 14.8%
Molecule: 9D33 IgG (antibody)

% inhibition of TSH-biotin binding [7]: 43.6% | mean units/mg [8]: 131 units/mg
Molecule: M22 IgG (antibody)
